Assay results reported in US20220177587A1, “METHODS AND USES OF VARIANT CD80 FUSION PROTEINS AND RELATED CONSTRUCTS” (Alpine Immune Sciences, Inc., priority 2018, published 2022).
Read-outs that look alike come from different tables or passages of the source. Each block holds one substance with its values, some of them ahead of it.

What was measured:
[1] = molecular target: PD-L1 (human) (UniProt Q9NZQ7); experiment: flow cytometry, HEK293 cells transfected with human PD-L1; negative control
Target sequence in this assay (Q9NZQ7 19-290): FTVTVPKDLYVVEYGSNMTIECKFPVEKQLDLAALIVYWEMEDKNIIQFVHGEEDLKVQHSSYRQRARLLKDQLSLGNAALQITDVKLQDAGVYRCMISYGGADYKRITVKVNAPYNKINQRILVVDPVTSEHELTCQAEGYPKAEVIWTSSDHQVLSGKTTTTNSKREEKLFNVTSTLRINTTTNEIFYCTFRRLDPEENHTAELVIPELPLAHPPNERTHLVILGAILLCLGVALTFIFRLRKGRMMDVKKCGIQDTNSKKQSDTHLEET

[2] = molecular target: human CTLA-4 (human) (UniProt P16410); experiment: flow cytometry, HEK293 cells transfected with human CTLA-4; negative control
Target sequence in this assay (P16410 36-223): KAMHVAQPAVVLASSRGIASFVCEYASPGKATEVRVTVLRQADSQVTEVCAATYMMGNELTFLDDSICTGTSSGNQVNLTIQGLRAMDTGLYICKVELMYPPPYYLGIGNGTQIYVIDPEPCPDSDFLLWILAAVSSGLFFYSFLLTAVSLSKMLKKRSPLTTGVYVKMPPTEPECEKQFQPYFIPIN

[3] = molecular target: CD28 (human) (UniProt P10747); experiment: flow cytometry, HEK293 cells transfected with human CD28; negative control
[4] = molecular target: CD28 (human) (UniProt P10747); experiment: flow cytometry, Jurkat cells (CD28)
[5] = molecular target: CD28 (human) (UniProt P10747)
[6] = molecular target: PD-L1 (human) (UniProt Q9NZQ7); experiment: flow cytometry, CHO cells stably expressing PD-L1
[7] = molecular target: human CTLA-4 (human) (UniProt P16410); experiment: flow cytometry, CHO cells stably expressing CTLA4
[8] = molecular target: PD-L1 (human) (UniProt Q9NZQ7); experiment: flow cytometry, HEK293 cells transfected with human PD-L1
Target sequence in this assay (Q9NZQ7 19-290): as the sequence (Q9NZQ7 19-290) above

[9] = molecular target: human PD-L1 (huPD-L1), on stably transduced CHO cells (human) (UniProt Q9NZQ7); experiment: flow cytometry on CHO/huPD-L1 cells; MFI relative to WT CD80 (CD80 WT IgV-Fc = 1.0)
Sequence of human PD-L1 (huPD-L1), on stably transduced CHO cells (human) (Q9NZQ7 19-290): as above

[10] = molecular target: human PD-L1 (huPD-L1), on stably transduced CHO cells (human) (UniProt Q9NZQ7); experiment: flow cytometry on CHO cells stably expressing huPD-L1, 33.3 nM Fc fusion, PE anti-human Fc
[11] = molecular target: human CTLA-4 (huCTLA4), on stably transduced CHO cells (human) (UniProt P16410); experiment: flow cytometry on CHO/huCTLA4 cells; MFI relative to WT CD80 (CD80 WT IgV-Fc = 1.0)
Sequence of human CTLA-4 (huCTLA4), on stably transduced CHO cells (human) (P16410 36-223): as the sequence (P16410 36-223) above

[12] = molecular target: CD28, endogenously expressed on Jurkat/IL2 reporter cells (human) (UniProt P10747); experiment: flow cytometry on Jurkat/IL2 reporter cells (endogenous CD28), 33.3 nM Fc fusion, PE anti-human Fc
[13] = molecular target: CD28, endogenously expressed on Jurkat/IL2 reporter cells (human) (UniProt P10747); experiment: flow cytometry on Jurkat (CD28) cells; MFI relative to WT CD80 (CD80 WT IgV-Fc = 1.0)
[14] = molecular target: human PD-L1 (huPD-L1), on stably transduced CHO cells (human) (UniProt Q9NZQ7); experiment: flow cytometry; ratio of MFI on CHO/huPD-L1 cells to MFI on Jurkat (CD28) cells
[15] = molecular target: human CTLA-4 (huCTLA4), on stably transduced CHO cells (human) (UniProt P16410); experiment: flow cytometry on CHO cells stably expressing huCTLA4, 33.3 nM Fc fusion, PE anti-human Fc
[16] = molecular target: PD-L1 (human) (UniProt Q9NZQ7)
Target sequence in this assay (Q9NZQ7 19-290): as the sequence (Q9NZQ7 19-290) above

[17] = molecular target: CD28 (human) (UniProt P10747); remark: listed apart in the source
[18] = molecular target: CD28 (human) (UniProt P10747); experiment: flow cytometry, HEK293 cells transfected with full-length human CD28, PE anti-human Fc
[19] = molecular target: human CTLA-4 (human) (UniProt P16410); experiment: flow cytometry, HEK293 cells transfected with full-length human CTLA-4, PE anti-human Fc
Target sequence in this assay (P16410 36-223): as the sequence (P16410 36-223) above

[20] = molecular target: PD-L1 (human) (UniProt Q9NZQ7); remark: listed apart in the source
Target sequence in this assay (Q9NZQ7 19-290): as the sequence (Q9NZQ7 19-290) above

[21] = molecular target: CD28 (human) (UniProt P10747); remark: listed apart in the source
[22] = molecular target: PD-L1 (human) (UniProt Q9NZQ7); remark: listed apart in the source
Target sequence in this assay (Q9NZQ7 19-290): as above

[23] = molecular target: CD28 (human) (UniProt P10747); remark: listed apart in the source
[24] = molecular target: PD-L1 (human) (UniProt Q9NZQ7); experiment: flow cytometry, HEK293 cells transfected with full-length human PD-L1, PE anti-human Fc
Target sequence in this assay (Q9NZQ7 19-290): as above

[25] = molecular target: PD-L1 (human) (UniProt Q9NZQ7); remark: listed apart in the source
[26] = molecular target: CD28 (human) (UniProt P10747); remark: listed apart in the source
[27] = molecular target: PD-L1 (human) (UniProt Q9NZQ7); experiment: flow cytometry, transfected Expi293F cells
[28] = molecular target: human CTLA-4 (human) (UniProt P16410); experiment: flow cytometry, transfected Expi293F cells
Target sequence in this assay (P16410 36-223): as the sequence (P16410 36-223) above

[29] = molecular target: CD28 (human) (UniProt P10747); experiment: flow cytometry, HEK293 cells transfected with human CD28
[30] = molecular target: PD-L1 (human) (UniProt Q9NZQ7); experiment: flow cytometry, CHO cells stably expressing PD-L1; remark: listed apart in the source
[31] = molecular target: CD28 (human) (UniProt P10747); experiment: flow cytometry, Jurkat cells (CD28); remark: listed apart in the source
[32] = molecular target: PD-L1 (human) (UniProt Q9NZQ7); experiment: flow cytometry, CHO cells expressing PD-L1
[33] = molecular target: CD28 (human) (UniProt P10747); experiment: flow cytometry, Jurkat/IL2 reporter cells (CD28)
[34] = molecular target: PD-L1 (human) (UniProt Q9NZQ7); experiment: flow cytometry, CHO cells expressing huPD-L1
[35] = molecular target: human CTLA-4 (human) (UniProt P16410); experiment: flow cytometry, CHO cells expressing huCTLA4
Target sequence in this assay (P16410 36-223): as above

[36] = molecular target: CD28 (human) (UniProt P10747); experiment: flow cytometry, Jurkat/IL2 reporter cells (CD28), vs WT CD80 ECD-Fc (R&D)
[37] = molecular target: human CTLA-4 (human) (UniProt P16410); experiment: flow cytometry, CHO cells expressing huCTLA4, vs WT CD80 ECD-Fc (R&D)
Target sequence in this assay (P16410 36-223): as above

Substance: Fc only
MFI at 22.2 nM [1]: 4740
MFI at 66.6 nM [2]: 5960
MFI at 66.6 nM [3]: 2590

Substance: Human IgG1 Isotype Control (antibody)
MFI at 66.7 nM [4]: 73.2
Relative Luminescence (RLU), Jurkat/IL2 reporter assay, at 100000 pM [5]: 965 RLU
MFI at 66.7 nM [6]: 96.4
MFI at 66.7 nM [7]: 69.4

Substance: WT CD80 IgV-Fc (inert) (Fc fusion)
Jurkat/IL2 reporter RLU at 50 nM, K562/OKT3/PD-L1 aAPC [16]: 206 RLU
Jurkat/IL2 reporter RLU at 50 nM, K562/OKT3/PD-L1 aAPC [17]: 206 RLU
MFI at 66.6 nM [18]: 1620 MFI
MFI at 66.6 nM [19]: 20700 MFI
Jurkat/IL2 reporter RLU at 50 nM, CHO/OKT3/PD-L1 aAPC [20]: 483 RLU
Jurkat/IL2 reporter RLU at 50 nM, CHO/OKT3/PD-L1 aAPC [21]: 483 RLU
Jurkat/IL2 reporter RLU at 50 nM, CHO/OKT3 aAPC without PD-L1 [21]: 479 RLU
IL-2 release, primary T cells + K562/OKT3/PD-L1, 100 nM [22]: 52
IL-2 release, primary T cells + K562/OKT3/PD-L1, 100 nM [23]: 52
MFI at 22.2 nM [24]: 1770 MFI
Jurkat/IL2 reporter RLU at 50 nM, K562/OKT3/PD-L1 aAPC [25]: 566 RLU
Jurkat/IL2 reporter RLU at 50 nM, K562/OKT3/PD-L1 aAPC [26]: 566 RLU

Substance: CD80 R29D/Y31L/Q33H/K36G/M38I/T41A/M43R/M47T/L85R/K89N/A91T/F92P/K93V/R94L/I118V/T120S/I127T/T130A/K169E/H188D ECD-Fc (Fc fusion)
MFI [27]: 110000
MFI [28]: 2200

Substance: variant CD80 IgV-Fc E35D/M42V/M47V/E52D/L85Q (Fc fusion)
MFI at 33.3 nM [33]: 1290 MFI
MFI at 33.3 nM [34]: 11900 MFI
MFI at 33.3 nM [35]: 226000 MFI
Fold change to WT CD80 [36]: 0.07 fold
Fold change to WT CD80 [37]: 1.44 fold

The remaining lines, values ahead:

MFI at 22.2 nM [8]: 6310
Substance: variant CD80 IgV-Fc S44P/A71D (Fc fusion)

Fold change to WT CD80 [9]: 31.2 fold
MFI at 33.3 nM [10]: 2190 MFI
Fold change to WT CD80 [11]: 15.8 fold
MFI at 33.3 nM [12]: 72.4 MFI
Fold change to WT CD80 [13]: 1.1 fold
Ratio of PDL1:CD28 [14]: 30
MFI at 33.3 nM [15]: 30300 MFI
Substance: variant CD80 IgV-Fc E35D/T41S/N48T (Fc fusion)

MFI at 33.3 nM [4]: 31 MFI
MFI at 33.3 nM ([4]; record 2): 30 MFI
MFI at 66.6 nM [29]: 24800
MFI at 33.3 nM [30]: 58 MFI
MFI at 33.3 nM [31]: 46 MFI
MFI at 33.3 nM [32]: 52 MFI
Substance: WT CD80 ECD-Fc (Fc fusion)
